Experimental data from publication doi:10.1101/2020.05.01.072132, “Peroxisome counteracts oxidative stresses by suppressing catalase import via Pex14 phosphorylation” (bioRxiv, 2020).

Biological target: Pex5L, a longer isoform of Pex5 (Chinese hamster, ClPex5L) (Chinese hamster, UniProt Q920N5 1-640)
Experiment: pull-down; GST-Pex14 variants (2 μg) on glutathione-Sepharose beads incubated with EGFP-PTS1 (4 μg) or HA-catalase (4 μg) in the presence of Pex5L (2 μg) 2 h at 4°C; 50 mM Tris-HCl pH 7.5, 0.15 M NaCl, 1% Triton X-100, 10% glycerol; immunoblot
Conditions: both partners purified

binding result: binds
B1: HA-catalase (human, HA-HsCatalase) (enzyme)
chain: MADSRDPASDQMQHWKEQRAAQKADVLTTGAGNPVGDKLNVITVGPRGPLLVQDVVFTDEMAHFDRERIPERVVHAKGAGAFGYFEVTHDITKYSKAKVFEHIGKKTPIAVRFSTVAGESGSADTVRDPRGFAVKFYTEDGNWDLVGNNTPIFFIRDPILFPSFIHSQKRNPQTHLKDPDMVWDFWSLRPESLHQVSFLFSDRGIPDGHRHMNGYGSHTFKLVNANGEAVYCKFHYKTDQGIKNLSVEDAARLSQEDPDYGIRDLFNAIATGKYPSWTFYIQVMTFNQAETFPFNPFDLTKVWPHKDYPLIPVGKLVLNRNPVNYFAEVEQIAFDPSNMPPGIEASPDKMLQGRLFAYPDTHRHRLGPNYLHIPVNCPYRARVANYQRDGPMCMQDNQGGAPNYYPNSFGAPEQQPSALEHSIQYSGEVRRFNTANDDNVTQVRAFYVNVLNEEQRKRLCENIAGHLKDAQIFIQKKAVKNFTEVHPDYGSHIQALLDKYNAEKPKNAIHTFVQSGSHLAAREKANL
notes: catalase, human (HsCatalase), amplified from pUcD3/HA-HsCatalase (Otera and Fujiki, 2012) and cloned into pGEX6P-1; source: E. coli DH5α, purified as GST fusion with glutathione-Sepharose beads, isolated by cleaving with PreScission protease
